Molecular target: UBE2L3 wild type (Mus musculus)
Experiment: MST

Sequence of UBE2L3 wild type (Mus musculus) (B2R4A7 whole entry): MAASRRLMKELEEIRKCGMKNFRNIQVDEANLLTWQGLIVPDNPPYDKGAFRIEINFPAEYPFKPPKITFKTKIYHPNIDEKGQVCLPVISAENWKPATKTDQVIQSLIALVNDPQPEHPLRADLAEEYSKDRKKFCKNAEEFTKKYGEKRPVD

B1: GST-MuRF1RM (MuRF1 amino acids 1-115, RING and MFC domains) (domain or fragment)
chain: MDYKSGLIPDGNAMENLEKQLICPICLEMFTKPVVILPCQHNLCRKCANDIFQAANPYWTNRGGSVSMSGGRFRCPSCRHEVIMDRHGVYGLQRNLLVENIIDIYKQECSSRPLQ
modifications: red fluorescent dye NT-647, covalently, by amine coupling (in the fluorescence assay only)
Binder B1 has a Kd of 0.15 µM.

Reference: article PMC12103069 (2025)
